Blank lines part the entries; values can stand above or below the molecule they belong to.
Assays:
[1] = tested on: NCI-H441; assay: In vivo combination of 224G11 and Navelbine on NCI-H441 xenograft model (Example 19); parameters: species or system Athymic nude mice; conditions: day 41 post first injection
Protocol: NCI-H441 cells from ATCC were routinely cultured in RPMI 1640 medium, 10% FCS, 1% L-Glutamine. Cells were split two days before engraftment being in exponential phase of growth. Ten million NCI-H441 cells were engrafted to Athymic nude mice. […] Mice were treated i.p. either with a loading dose of 2 mg of 224G11 Mab/mouse and then twice a week with 1 mg of antibody/mouse until Day 38 or with 3 injections of Navelbine® (D5, D12, D19) at 8 mg/kg. A third group administered with the combine treatment was also included. Navelbine® was given by i.p. injections. Tumor volume was measured twice a week and calculated by the formula: π/6×length×width×height and animal weights were monitored every day over the period of Navelbine® treatment. Statistical analysis was performed at each measured time using either a t-test or a Mann-Whitney test. […] Results are represented in FIG. 45.

[2] = tested on: HUVEC; assay: HUVEC tube formation; assay type: cell-based; conditions: HGF 50 ng/ml
Protocol: For evaluation of HUVEC tube formation, 25000 cells incubated 30 min with antibodies to be tested were plated in 48-well plates coated with matrigel. Then HGF 50 ng/ml was added and plates were incubated at 37° C. Medium was then harvested and […] CMFDA was added for 15 min before microscopic observation.

[3] = molecular target: T1, recombinant c-Met-Extra-Cellular Domain (ECD) fused to an human IgG Fc domain (Homo sapiens, UniProt P08581); assay: Determination of affinity constants (KD) by Biacore analysis; assay type: binding; conditions: text summary of table 4; read-out: affinity for recombinant c-Met-Fc fusion protein
T1 construct: recombinant c-Met-Extra-Cellular Domain (ECD) fused to an human IgG Fc domain (R&D Systems) as antigen; purchased R&D Systems
From the text: The binding affinity of purified 11E1 and 224G11 antibodies was investigated by BIAcore X using recombinant c-Met-Extra-Cellular Domain (ECD) fused to an human IgG Fc domain (R&D Systems) as antigen (MW=129 kDa). As both c-Met-Fc fusion proteins and antibodies are bivalent compounds, Fab fragments of mAbs 11E1 and 224G11 (MW=50 kDa) were generated by papain cleavage, purified and used in this assay to avoid interference with avidity parameter. For the assay, an anti-Tag histidine capture antibody was coated on CM5 sensorchips. The running buffer was HBS-EP, the flow rate was 30 μl/min and the test was performed at 25° C. Soluble c-Met (ECD_M1)2-Fc-(HHHHHH)2 antigen was captured on the sensorchip (around 270 RU), and the antibodies to be tested were used in solution as analytes. The sensorship was regenerated using Glycine, HCl pH 1.5 buffer on both flowcells for half a minute.

[4] = tested on: NCI-H441; assay: NCI-H441 xenograft model (Example 11)
From the text: The evaluation of anti-c-met antibodies on the in vivo activity of this non autocrine cell line could give some insights about their potency to impact on c-met dimerization.

[5] = tested on: NCI-H441; assay: In vivo combination of 224G11 and Doxorubicin on NCI-H441 xenograft model; parameters: species or system Athymic nude mice; conditions: D11 to D39; Doxorubicin 5 mg/kg i.v.
Protocol: NCI-H441 cells from ATCC were routinely cultured in RPMI 1640 medium, 10% FCS, 1% L-Glutamine. Cells were split two days before engraftment being in exponential phase of growth. Ten million NCI-H441 cells were engrafted to Athymic nude mice. […] Mice were treated i.p. either with a loading dose of 2 mg of 224G11 Mab/mouse and then twice a week with 1 mg of antibody/mouse or with 4 injections of Doxorubicin (D5, D12, D19, D26) at 5 mg/kg. A third group administered with the combine treatment was also included. Doxorubicin was given by i.v. injections. Tumor volume was measured twice a week and calculated by the formula: π/6×length×width×height and animal weights were monitored every day over the period of Doxorubicin treatment. Statistical analysis was performed at each measured time using either a t-test or a Mann-Whitney test. […] Results are represented in FIG. 46.

[6] = molecular target: T2, c-Met (Homo sapiens, UniProt P08581); assay: Phospho c-Met ELISA assay on A549 cells; assay type: cell-based; conditions: purified Mabs; for IC50, c-Met phosphorylation: 0.0015 to 30 μg/ml (0.01-200 nM); for agonist effect on c-Met phosphorylation, added alone / antagonist effect on c-Met phosphorylation in presence of HGF: A549, 30 μg/ml (200 nM), Example 18
T2 construct: endogenous in cells; host or cells: A549
Protocol: To determine the activity of anti-c-Met antibodies on c-Met phosphorylation a phospho c-Met ELISA assay was set-up. Briefly 500 000 A549 cells were seeded in each well of 6-well plates in F12K medium+10% FCS. 16 hours before HGF addition (100 ng/ml), cells were starved and each antibody to be tested was added at a final concentration of 30 μg/ml 15 minutes before ligand stimulation. 15 minutes after HGF addition, cold lysis buffer was added, cells were scraped and cell lysates collected and centrifuged at 13 000 rpm for 10 min at 4° C. Supernatants were quantified with a BCA kit (Pierce) and stored at −20° C. For ELISA assay, a goat anti-c-Met antibody (R&D ref. AF276) was used as a capture antibody (coating overnight at 4° C.) and after a saturation step (1 h at RT) with a TBS-BSA 5% buffer, […] of protein from the different cell lysates was added to each well of the 96-well plate. After a 90 minute-incubation time at RT, plates were washed four times and an anti-phospho-c-Met antibody (Rabbit anti-pY1230-1234-1235 c-Met) was added. After an additional 1 hour incubation time and 4 washes an anti-rabbit-HRP (Biosource) was added for 1 hour at RT and then Luminol substrate was added before evaluation the luminescence with a Mithras device. […] As described in the various examples presented in this patent, this weak basal effect has no consequences on the activity of antibodies in other in vitro and in vivo tests.
In example 3, the effect of anti-c-Met Mabs on phosphorylation was assessed with dosed supernatants from each hybridoma to be evaluated. The test has been performed again with purified 11E1 and 224G11 Mabs that have been evaluated either at a final concentration of 30 μg/ml (200 nM) or at a dose range from 0.0015 to 30 μg/ml (0.01-200 nM) in order to determine the IC50 of each antibody. The protocol used is the same as the one described in example 3.

[7] = tested on: SK-HEP-1 cells; assay: Scatter assay; assay type: cell-based; conditions: SK-HEP-1, antibody 10 μg/ml; for inhibitory effect on cell scattering in presence of HGF: HGF 100 ng/ml; for agonist effect on cell scattering, alone: no HGF
Protocol: SK-HEP-1 cells were seeded at low density (1·10^4 cells/well) in a 24-well plate in DMEM with 10% FCS and grown for 24 hours before addition, at the same time, of HGF (100 ng/ml) and antibodies to be tested (10 μg/ml). After 72 hours incubation, colonies were fixed and stained with 0.2% crystal violet in methanol and assessed for scattering visually. Each tested condition was tested as a triplicate and 3 independent experiments were performed.

T2 sequence (P08581 25-1390): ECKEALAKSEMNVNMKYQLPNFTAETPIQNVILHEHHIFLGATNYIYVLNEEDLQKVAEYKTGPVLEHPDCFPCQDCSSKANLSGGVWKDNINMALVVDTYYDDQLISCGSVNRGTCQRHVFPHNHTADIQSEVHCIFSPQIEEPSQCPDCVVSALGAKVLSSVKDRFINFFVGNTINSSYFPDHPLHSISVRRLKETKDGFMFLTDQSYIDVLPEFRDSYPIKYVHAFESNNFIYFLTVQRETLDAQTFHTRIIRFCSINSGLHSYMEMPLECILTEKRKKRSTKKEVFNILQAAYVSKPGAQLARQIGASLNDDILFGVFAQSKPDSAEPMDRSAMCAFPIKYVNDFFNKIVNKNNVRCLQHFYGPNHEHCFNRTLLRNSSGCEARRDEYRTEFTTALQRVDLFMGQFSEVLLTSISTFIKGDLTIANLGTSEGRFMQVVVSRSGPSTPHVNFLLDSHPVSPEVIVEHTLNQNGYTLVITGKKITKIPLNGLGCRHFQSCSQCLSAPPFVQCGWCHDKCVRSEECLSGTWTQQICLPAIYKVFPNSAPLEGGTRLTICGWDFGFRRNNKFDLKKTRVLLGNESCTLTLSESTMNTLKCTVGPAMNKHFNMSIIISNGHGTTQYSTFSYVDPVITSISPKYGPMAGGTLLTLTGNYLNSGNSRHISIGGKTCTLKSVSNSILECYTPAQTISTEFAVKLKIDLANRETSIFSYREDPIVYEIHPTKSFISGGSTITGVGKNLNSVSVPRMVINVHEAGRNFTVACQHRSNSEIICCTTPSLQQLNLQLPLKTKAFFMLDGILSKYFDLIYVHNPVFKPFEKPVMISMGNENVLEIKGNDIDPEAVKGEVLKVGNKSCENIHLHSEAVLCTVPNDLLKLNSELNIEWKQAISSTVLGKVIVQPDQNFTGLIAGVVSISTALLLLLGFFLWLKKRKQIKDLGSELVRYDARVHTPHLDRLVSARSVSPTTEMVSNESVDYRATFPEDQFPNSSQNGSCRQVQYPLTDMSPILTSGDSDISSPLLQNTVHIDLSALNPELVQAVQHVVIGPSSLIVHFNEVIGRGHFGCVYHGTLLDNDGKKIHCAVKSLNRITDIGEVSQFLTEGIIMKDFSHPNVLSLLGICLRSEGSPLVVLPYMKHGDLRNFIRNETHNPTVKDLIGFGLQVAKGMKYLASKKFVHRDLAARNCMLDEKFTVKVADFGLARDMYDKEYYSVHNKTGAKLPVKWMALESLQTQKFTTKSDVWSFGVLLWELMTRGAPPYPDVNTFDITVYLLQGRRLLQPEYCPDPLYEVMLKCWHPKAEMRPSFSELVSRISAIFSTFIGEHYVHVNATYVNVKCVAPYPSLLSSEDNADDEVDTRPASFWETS
T1 sequence (P08581 25-932 limits assumed): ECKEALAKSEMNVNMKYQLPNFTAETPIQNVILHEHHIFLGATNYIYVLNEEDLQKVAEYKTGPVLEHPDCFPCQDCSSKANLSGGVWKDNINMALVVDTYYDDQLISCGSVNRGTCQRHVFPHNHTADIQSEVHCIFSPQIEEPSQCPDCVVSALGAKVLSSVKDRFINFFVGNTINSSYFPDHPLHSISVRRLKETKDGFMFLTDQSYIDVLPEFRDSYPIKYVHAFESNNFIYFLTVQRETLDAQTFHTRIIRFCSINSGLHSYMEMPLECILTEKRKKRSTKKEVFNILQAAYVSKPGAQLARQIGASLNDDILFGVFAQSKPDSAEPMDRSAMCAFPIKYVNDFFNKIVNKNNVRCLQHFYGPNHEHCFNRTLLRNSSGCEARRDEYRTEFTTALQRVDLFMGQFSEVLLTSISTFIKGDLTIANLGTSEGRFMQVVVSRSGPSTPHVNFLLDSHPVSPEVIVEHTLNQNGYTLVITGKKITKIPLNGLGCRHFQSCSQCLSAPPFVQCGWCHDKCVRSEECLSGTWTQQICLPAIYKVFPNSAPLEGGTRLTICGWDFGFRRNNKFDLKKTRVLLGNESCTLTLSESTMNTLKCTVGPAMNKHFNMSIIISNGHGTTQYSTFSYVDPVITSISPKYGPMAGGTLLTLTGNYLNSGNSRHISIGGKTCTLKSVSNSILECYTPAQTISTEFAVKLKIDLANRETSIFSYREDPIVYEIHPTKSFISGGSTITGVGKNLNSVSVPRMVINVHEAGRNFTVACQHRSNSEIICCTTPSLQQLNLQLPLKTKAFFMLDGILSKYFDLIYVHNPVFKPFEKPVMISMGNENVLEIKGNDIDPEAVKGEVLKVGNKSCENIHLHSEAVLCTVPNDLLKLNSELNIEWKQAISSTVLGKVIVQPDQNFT

- Kd [3]: ~40 pM
- IC50, c-Met phosphorylation [6]: nanomolar
- agonist effect on c-Met phosphorylation, added alone [6]: no agonist effect
- antagonist effect on c-Met phosphorylation in presence of HGF [6]: 75%
B1: 224G11: murine anti-c-Met monoclonal antibody, IgG1 kappa; heavy chain SEQ ID No. 18, light chain SEQ ID No. 21 (antibody, V domains shown)
VH: EVQLQQSGPELVKPGASVKISCKTSGYIFTAYTMHWVRQSLGESLDWIGGIKPNNGLANYNQKFKGKATLTVDKSSSTAYMDLRSLTSEDSAVYYCARSEITTEFDYWGQGTALTVSS
VL: DIVLTQSPASLAVSLGQRATISCRASESVDSYANSFMHWYQQKPGQPPKLLIYRASNLESGIPARFSGSGSRTDFTLTINPVEADDVATYYCQQSKEDPLTFGSGTKLEMK
modifications: mus musculus
- reduction of average tumor volume [1]: 72%
- effect on HGF-induced tube formation [2]: inhibit dramatically
- inhibition of in vivo growth of NCI-H441 [4]: inhibited significantly
- anti-tumor activity compared to the control group [5]: significant anti-tumor activity
- inhibitory effect on cell scattering in presence of HGF [7]: very significant inhibitory effect
- agonist effect on cell scattering, alone [7]: No agonistic effect

- Kd [3]: ~40 pM
- IC50, c-Met phosphorylation [6]: nanomolar
- agonist effect on c-Met phosphorylation, added alone [6]: no agonist effect
- antagonist effect on c-Met phosphorylation in presence of HGF [6]: 87%
B2: 11E1: murine anti-c-Met monoclonal antibody, IgG1 kappa; heavy chain SEQ ID No. 62, light chain SEQ ID No. 63 (antibody, V domains shown)
VH: QVQLQQSGAELAKPGASVKMSCKASGYTFTSYWMNWVKQRPGQGLEWIGYINPTTGSTDYNQKLKDKATLTADKSSNTAYMQLSSLTSEDSAVYYCAIGGYGSWFAYWGQGTLVTVSA
VL: QIVLTQSPAIMSASPGEKVTLTCSASSSVSSTYLYWYQQKPGSSPKLWIYTTSILASGVPARFSGSGSGTSYSLTISSMETEDAASYFCHQWSSYPFTFGSGTKLDIK
modifications: mus musculus
- effect on HGF-induced tube formation [2]: inhibit dramatically
- inhibition of in vivo growth of NCI-H441 [4]: inhibited significantly
- inhibitory effect on cell scattering in presence of HGF [7]: very significant inhibitory effect
- agonist effect on cell scattering, alone [7]: No agonistic effect

Source: US8871909B2, “Antibodies inhibiting c-Met dimerization and uses thereof” (Pierre Fabre Medicament, priority 2007, dated 2014)
